The source of these data is patent US6464983.

Experiment [1] addresses high affinity CTGF receptors on mouse fibroblasts (NTH3T3) (mouse). Nature of the experiment: 125I-rhCTGF binding to cells, competition binding assay.
The target of experiment [2] is low affinity CTGF receptors on mouse fibroblasts (NTH3T3) (mouse). The experiment is described as above.
The target of experiment [3] is high affinity CTGF receptors on NRK-49F rat fibroblasts (rat). The experiment is described as follows: 125I-rhCTGF binding to cell monolayers, Scatchard / competition with unlabeled CTGF.
Experiment [4] concerns the target high affinity CTGF receptors on primary rat articular chondrocytes (rat). Described as above.
Experiment [5] addresses low affinity CTGF receptors on NRK-49F rat fibroblasts (rat). The experiment is described as above.
The target in experiment [6] is low affinity CTGF receptors on primary rat articular chondrocytes (rat). The description is as above.

With “iodinated recombinant human Connective Tissue Growth Factor (rhCTGF) (from UniProt P29279 27-349) (ligand)”, the Kd (as a rule, the equilibrium constant for the complex coming apart) was 0.005 to 0.01 nM in experiment [1]; 1.8 nM in experiment [2]; 0.013 to 0.023 nM in experiment [3]; 0.021 nM in experiment [4]; 1.1 to 2.2 nM in experiment [5]; 1 nM in experiment [6]. Further, the Sites/cell in experiment [1] is 480 sites/cell; in experiment [2], 102000 sites/cell; in experiment [6] it was 150000 sites/cell.
